In US20100292153A1 (US Dept. of Health and Human Services, published 2010):

Biological target: T1, TRAF2 (untagged) (UniProt Q12933 1-501, limits assumed)
T1 construct: Negative control
T1 sequence (looked up): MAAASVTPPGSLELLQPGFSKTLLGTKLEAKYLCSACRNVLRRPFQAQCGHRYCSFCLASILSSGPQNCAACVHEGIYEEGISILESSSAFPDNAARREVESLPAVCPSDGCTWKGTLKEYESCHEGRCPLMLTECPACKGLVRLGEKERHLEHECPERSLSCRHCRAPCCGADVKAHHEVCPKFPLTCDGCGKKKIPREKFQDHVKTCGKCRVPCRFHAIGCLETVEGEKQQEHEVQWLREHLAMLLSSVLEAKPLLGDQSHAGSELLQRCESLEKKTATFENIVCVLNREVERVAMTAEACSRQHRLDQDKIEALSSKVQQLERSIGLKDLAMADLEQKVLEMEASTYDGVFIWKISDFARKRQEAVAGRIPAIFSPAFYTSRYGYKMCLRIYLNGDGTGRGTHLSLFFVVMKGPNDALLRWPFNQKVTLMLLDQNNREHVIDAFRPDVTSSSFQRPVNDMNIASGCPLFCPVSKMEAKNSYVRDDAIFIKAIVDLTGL
Assay: co-immunoprecipitation from transfected HEK293 cells (anti-FLAG beads, anti-TRAF2 immunoblot)
Protocol: Whole cell lysates were prepared 48 hrs after the transfection and were incubated with anti-FLAG conjugated beads (Sigma) overnight.

B1: FLAG-tagged human IRF4 (other, UniProt Q15306 1-451, looked up)
chain: MNLEGGGRGGEFGMSAVSCGNGKLRQWLIDQIDSGKYPGLVWENEEKSIFRIPWKHAGKQDYNREEDAALFKAWALFKGKFREGIDKPDPPTWKTRLRCALNKSNDFEELVERSQLDISDPYKVYRIVPEGAKKGAKQLTLEDPQMSMSHPYTMTTPYPSLPAQQVHNYMMPPLDRSWRDYVPDQPHPEIPYQCPMTFGPRGHHWQGPACENGCQVTGTFYACAPPESQAPGVPTEPSIRSAEALAFSDCRLHICLYYREILVKELTTSSPEGCRISHGHTYDASNLDQVLFPYPEDNGQRKNIEKLLSHLERGVVLWMAPDGLYAKRLCQSRIYWDGPLALCNDRPNKLERDQTCKLFDTQQFLSELQAFAHHGRSLPRFQVTLCFGEEFPDPQRQRKLITAHVEPLLARQLYYFAQQNSGHFLRGYDLPEHISNPEDYHRSIRHSSIQE
notes: Expressed by transfection in HEK293 cells; pulled down from whole cell lysates with anti-FLAG beads; it is entered under this molecule; also called IFN-regulatory factor 4; FLAG-tagged IRF4; not shown: FLAG tag
Does B1 bind?
Result: no binding
